Values of other authors as cited in patent US20150182632A1, “ANTI-INTERLEUKIN-1 (IL-1) ANTIBODY USED AS A TARGETING AGENT TO TREAT ARTHRITIS AND OTHER DISEASES” (priority 2012, published 2015).

Molecular target: T1, IL-1 (Homo sapiens, UniProt P01584)
T1 construct: Patients with arthritis and other inflammatory diseases produce IL-1 which is present in the blood; host or cells: endogenous IL-1 of RA patients (in vivo)
Details: several intravenous injections

clinical response of RA patients: clinical improvement
Substance: ACZ885: anti-IL-1 monoclonal antibody
